Data taken from patent US7262177B2, “Conjugates of glycosylated/galactosylated peptide, bifunctional linker, and nucleotidic monomers/polymers, and related compositions and methods of use” (priority 2000, dated 2007).

Experiment: Serum stability of 35S labeled po 1-mer conjugate, PAGE analysis
Format: in vitro ADME
Settings: human serum, 37° C.
Protocol: Studies were carried out at physiological conditions. The analyses were accomplished using reversed-phase HPLC and PAGE methods. The raw data are presented in table format (Tables 1, 2 and 3). The serum half-life calculated is t1/2=1/k (0.693), derived from the [A]=[A0]e^−kt, where [A0] is the original amount of substrate, [A] is the measured substrate level, t is time (min), and k is the first-order rate constant.
Reaction Conditions: 2 μl of human serum were added to 200,000 cpm of dry ^35S labeled po 1-mer conjugate. Radiolabeled conjugate was incubated at 37° C. in the presence of this serum for the allotted time periods (15 min, 30 min, 60 min, 120 min, 240 min). The reaction mixture was diluted with 2 μl of H2O, then 4 μl of loading buffer. The degradation pattern was observed through autoradiography of a 20% polyacylamide gel (0.75 mm) run at 800 V for 90 min. Bands were quantified through the use of a Fujix BAS 2000 Phosphorimager (Table 3).

CC(=O)N[C@H]1[C@H](OCCCCCCNC(=O)CC[C@H](NC(=O)CC[C@H](NC(=O)[C@H](Cc2ccc(O)cc2)NC(=O)C2CCC(CN3C(=O)CC(SCCCCCCOP(=O)(O)OC[C@H]4O[C@@H](n5cc(F)c(=O)[nH]c5=O)C[C@@H]4O)C3=O)CC2)C(=O)NCCCCCCO[C@@H]2O[C@H](CO)[C@H](O)[C@H](O)[C@H]2NC(C)=O)C(=O)NCCCCCCO[C@@H]2O[C@H](CO)[C@H](O)[C@H](O)[C@H]2NC(C)=O)O[C@H](CO)[C@H](O)[C@@H]1O (stereo partly drawn) [po 1-mer, YEE(ahGalNAc)3-SMCC-poFU]
Normalized Area (0 min): 0
Pixel Area (0 min): 42.57
Standardized Area (0 min): 1
Normalized Area (15 min): 0.1486
Pixel Area (15 min): 57.43
Standardized Area (15 min): 0.8514
Normalized Area (30 min): 0.2404
Pixel Area (30 min): 66.61
Standardized Area (30 min): 0.7596
Normalized Area (60 min): 0.3435
Pixel Area (60 min): 76.92
Standardized Area (60 min): 0.6565
Normalized Area (120 min): 0.39
Pixel Area (120 min): 81.57
Standardized Area (120 min): 0.61
Normalized Area (240 min): 0.3756
Pixel Area (240 min): 80.13
Standardized Area (240 min): 0.6244
